Results from US20250297009A1.

Experiments:
[1] = biological target: Human TGF-β3 (PeproTech, 100-36E) (human) (UniProt P10600); assay: ELISA, human TGF-β3 coated, mouse anti-human Fc-HRP detection
[2] = biological target: Human TGF-β1 (Acrobiosystems, TG1-H421) (human) (UniProt P01137); assay: ELISA, human TGF-β1 coated, mouse anti-human Fc-HRP detection
Chain of Human TGF-β1 (Acrobiosystems, TG1-H421) (human) (P01137 279-390 limits assumed): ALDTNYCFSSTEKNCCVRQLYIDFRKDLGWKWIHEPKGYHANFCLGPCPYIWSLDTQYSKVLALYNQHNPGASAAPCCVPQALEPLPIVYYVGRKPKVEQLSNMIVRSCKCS

Chain of Human TGF-β3 (PeproTech, 100-36E) (human) (P10600 301-412 limits assumed): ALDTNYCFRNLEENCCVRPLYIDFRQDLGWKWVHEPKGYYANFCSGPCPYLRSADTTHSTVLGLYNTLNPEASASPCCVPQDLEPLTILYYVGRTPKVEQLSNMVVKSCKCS

- EC50 (read off the curve) [1]: 0.2 nM
- EC50 (read off the curve) [2]: 0.3 nM
Substance: TGF-βRII (Fc fusion)
